Results: article PMC7707563, “Lack of evidence for expression and function of IL-39 in human immune cells” (PLoS ONE, 2020)

T1: human IL-23 p19 (aa20-189) (human, UniProt Q9NPF7 20-189)
T1 construct: human IL-23 p19 subunit, aa20-189, ORF in the mammalian expression vector pRS5a, untagged; The stated range lacks the protein's own signal peptide, yet the protein is secreted; also called IL-23A-p19; source: HEK293FT, transfected (pRS5a-IL23p19), in concentrated supernatant
T1 sequence (looked up): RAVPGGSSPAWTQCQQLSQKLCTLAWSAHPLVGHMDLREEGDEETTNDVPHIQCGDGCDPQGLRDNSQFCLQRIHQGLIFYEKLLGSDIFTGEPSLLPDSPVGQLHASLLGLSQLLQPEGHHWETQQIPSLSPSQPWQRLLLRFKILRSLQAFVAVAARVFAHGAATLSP

B1: C-terminally 10 x His-tagged EBI3 (natural protein, human, UniProt Q14213 21-229, looked up)
chain: RKGPPAALTLPRVQCRASRYPIAVDCSWTLPPAPNSTSPVSFIATYRLGMAARGHSWPCLQQTPTSTSCTITDVQLFSMAPYVLNVTAVHPWGSSSSFVPFITEHIIKPDPPEGVRLSPLAERQLQVQWEPPGSWPFPEIFSLKYWIRYKRQGAARFHRVGPIEATSFILRAVRPRARYYVQVAAQDLTDYGELSDWSLPATATMSLGK
notes: human Epstein-Barr Virus-induced 3 (EBI3), aa21-229, ORF in the mammalian expression vector pRS5a; The limits aa21-229 are printed for EBI3; also called EBI3-His; His-EBI3; source: HEK293FT, transfected (pRS5a-EBI3-His10), in concentrated supernatant; not shown: His10, C-terminal, kept

Assays:
[1] = target: human IL-23 receptor on HEK-Blue IL-23 cells (human) (UniProt Q5VWK5)
Sequence of human IL-23 receptor on HEK-Blue IL-23 cells (human) (Q5VWK5 24-629): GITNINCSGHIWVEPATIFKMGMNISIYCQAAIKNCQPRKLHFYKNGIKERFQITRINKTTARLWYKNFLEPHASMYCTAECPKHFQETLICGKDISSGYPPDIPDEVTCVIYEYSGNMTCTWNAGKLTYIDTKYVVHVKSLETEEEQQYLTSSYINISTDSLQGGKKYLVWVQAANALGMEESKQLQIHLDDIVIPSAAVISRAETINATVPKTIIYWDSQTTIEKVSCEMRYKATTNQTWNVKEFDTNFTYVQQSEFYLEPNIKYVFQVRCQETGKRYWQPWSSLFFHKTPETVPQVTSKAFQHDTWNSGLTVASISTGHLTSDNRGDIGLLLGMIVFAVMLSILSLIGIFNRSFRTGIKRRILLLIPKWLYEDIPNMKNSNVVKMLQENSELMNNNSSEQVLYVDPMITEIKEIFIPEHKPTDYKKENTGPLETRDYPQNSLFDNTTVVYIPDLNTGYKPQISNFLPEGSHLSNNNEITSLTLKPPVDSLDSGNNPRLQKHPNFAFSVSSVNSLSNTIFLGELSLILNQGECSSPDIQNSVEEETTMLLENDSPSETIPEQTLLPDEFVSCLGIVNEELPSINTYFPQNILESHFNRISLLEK

[2] = target: T1, human IL-23 p19 (aa20-189); assay: ELISA; sandwich: plate coated with anti-p19 antibody, concentrated supernatants of p19 and EBI3-His transfected HEK293FT cells 2 hrs at room temperature, detection with biotinylated EBI3 antibody and HRP-Avidin; conditions: partners not purified

Molecule	STAT3 activity (SEAP reporter) over background in HEK-Blue IL-23 cells, various concentrations of IL-23, concentration-dependent; number printed for 2 pM IL-23 [1] [fold]	fold increase in optical density against supernatants of mock or single transfected cells [2] [fold]
recombinant human IL-23 (from UniProt Q9NPF7 20-189; P29460 23-328) (complex)	2.5	
B1		~2.5
